Results: article PMC6109231

Biological target: heat shock protein 60 (HSP60) (human (endogenous in HEK293T)), P10809
Assay: negative-stain EM, single-particle analysis; SEC fraction 4 (1.5 to 2 MDa) of HEK293T lysate, Superdex 200 in PBS pH 7.2 at 4°C; 2% uranyl acetate; raw micrographs, reference-free 2D class averages, 3D classification (RELION) and ab initio reconstruction (cryoSPARC); proteins identified by mass spectrometry of the fraction
Conditions: remark: other sources report otherwise

B1: heat shock protein 60 (HSP60), P10809 27-573 (natural protein)
chain: AKDVKFGADARALMLQGVDLLADAVAVTMGPKGRTVIIEQSWGSPKVTKDGVTVAKSIDLKDKYKNIGAKLVQDVANNTNEEAGDGTTTATVLARSIAKEGFEKISKGANPVEIRRGVMLAVDAVIAELKKQSKPVTTPEEIAQVATISANGDKEIGNIISDAMKKVGRKGVITVKDGKTLNDELEIIEGMKFDRGYISPYFINTSKGQKCEFQDAYVLLSEKKISSIQSIVPALEIANAHRKPLVIIAEDVDGEALSTLVLNRLKVGLQVVAVKAPGFGDNRKNQLKDMAIATGGAVFGEEGLTLNLEDVQPHDLGKVGEVIVTKDDAMLLKGKGDKAQIEKRIQEIIEQLDVTTSEYEKEKLNERLAKLSDGVAVLKVGGTSDVEVNEKKDRVTDALNATRAAVEEGIVLGGGCALLRCIPALDSLTPANEDQKIGIEIIKRTLKIPAMTIAKNAGVEGSLIVEKIMQSSSEVGYDAMAGDFVNMVEKGIIDPTKVVRTALLDAAGVASLLTTAEVVVTEIPKEEKDPGMGAMGGMGGGMGGGMF
  stoichiometry N: 7
